From publication PMC3950671

Tests used:
[1] = biological target: T1, PGC7 D9 (human, UniProt Q6W0C5 20-95); test: EMSA
T1 sequence: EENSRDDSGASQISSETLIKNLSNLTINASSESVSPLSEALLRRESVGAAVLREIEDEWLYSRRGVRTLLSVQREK

[2] = biological target: T2, PGC7 (Dppa3/Stella) (human, UniProt Q6W0C5 1-159); test: EMSA
T2 sequence: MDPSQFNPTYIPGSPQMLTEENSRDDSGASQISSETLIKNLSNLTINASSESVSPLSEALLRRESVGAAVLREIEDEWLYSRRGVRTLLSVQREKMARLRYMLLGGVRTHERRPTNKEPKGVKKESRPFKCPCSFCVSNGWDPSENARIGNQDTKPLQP

B1: PGC7 motif 50-mer (dsDNA)
DNA 1: GAGTAAGATCATGCCACTGCACTTCAGCCTGGGCACAGAGTGAGGCTGGG
DNA 2: CCCAGCCTCACTCTGTGCCCAGGCTGAAGTGCAGTGGCATGATCTTACTC
binding result [1]: binds | binding result [2]: binds
